Literature values as cited in PMC3423339.

Target: Alk1 (Homo sapiens) (UniProt P37023)
Sequence of UniProt P37023 (P37023 22-118): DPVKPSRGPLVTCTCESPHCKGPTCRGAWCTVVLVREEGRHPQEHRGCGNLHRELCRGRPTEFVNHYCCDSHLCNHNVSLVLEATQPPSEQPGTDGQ

Kd: 1 pM
Substance: BMP9 (from UniProt Q9UK05)
